The target in data set [1] is T1, recombinant full-length mouse IRF1 (mouse, UniProt P15314 1-329).
T1 sequence (looked up): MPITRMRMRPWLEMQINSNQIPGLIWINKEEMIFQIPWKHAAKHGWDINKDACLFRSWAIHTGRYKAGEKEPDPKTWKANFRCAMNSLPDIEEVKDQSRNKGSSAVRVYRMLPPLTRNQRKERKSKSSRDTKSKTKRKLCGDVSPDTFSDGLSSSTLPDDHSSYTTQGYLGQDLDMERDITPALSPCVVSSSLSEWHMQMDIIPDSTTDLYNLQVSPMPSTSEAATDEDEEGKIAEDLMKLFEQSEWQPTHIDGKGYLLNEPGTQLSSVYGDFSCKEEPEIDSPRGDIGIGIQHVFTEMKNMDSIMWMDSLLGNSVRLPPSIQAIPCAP
Kind of data set: native gel or EMSA.

Data set [2] deals with T2, IRF2 (mouse, UniProt P23906 1-349).
T2 sequence: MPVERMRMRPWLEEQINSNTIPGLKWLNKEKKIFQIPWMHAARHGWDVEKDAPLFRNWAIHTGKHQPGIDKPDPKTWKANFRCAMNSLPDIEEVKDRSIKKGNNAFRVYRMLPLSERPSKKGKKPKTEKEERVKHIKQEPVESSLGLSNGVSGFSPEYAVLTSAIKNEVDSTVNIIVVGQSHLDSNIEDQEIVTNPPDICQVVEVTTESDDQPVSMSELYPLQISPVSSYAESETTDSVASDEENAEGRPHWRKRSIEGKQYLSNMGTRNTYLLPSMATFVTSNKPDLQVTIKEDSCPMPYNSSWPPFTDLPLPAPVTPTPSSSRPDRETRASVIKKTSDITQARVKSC
Put plainly: EMSA.

The target in data set [3] is T3, IRF1 (mouse, UniProt P15314 1-329).
T3 sequence: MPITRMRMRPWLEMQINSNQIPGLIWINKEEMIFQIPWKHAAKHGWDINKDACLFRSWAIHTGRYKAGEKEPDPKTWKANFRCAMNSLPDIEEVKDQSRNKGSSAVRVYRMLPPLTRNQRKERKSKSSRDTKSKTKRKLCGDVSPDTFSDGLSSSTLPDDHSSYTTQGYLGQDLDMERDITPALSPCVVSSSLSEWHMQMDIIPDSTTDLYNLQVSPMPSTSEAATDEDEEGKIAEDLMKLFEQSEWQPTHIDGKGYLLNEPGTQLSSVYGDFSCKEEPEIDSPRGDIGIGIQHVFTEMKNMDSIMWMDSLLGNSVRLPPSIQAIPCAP
Put plainly: EMSA.

Data set [4] concerns the target SPOP (mouse, UniProt Q6ZWS8 28-329). Put plainly: EMSA.
Data set [5] addresses T4, IRF1;IRF2 (mouse;mouse, UniProt P15314;P23906 1-329;1-349, |).
T4 sequence 1: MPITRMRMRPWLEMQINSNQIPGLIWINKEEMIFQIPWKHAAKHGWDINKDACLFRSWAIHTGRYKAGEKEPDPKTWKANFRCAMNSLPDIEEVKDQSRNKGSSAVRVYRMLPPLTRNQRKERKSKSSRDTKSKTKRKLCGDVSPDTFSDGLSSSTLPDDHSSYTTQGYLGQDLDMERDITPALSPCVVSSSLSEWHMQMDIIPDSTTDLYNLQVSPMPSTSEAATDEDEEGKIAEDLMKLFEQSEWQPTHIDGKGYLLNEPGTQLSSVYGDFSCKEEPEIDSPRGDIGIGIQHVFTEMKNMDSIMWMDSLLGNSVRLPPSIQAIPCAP
T4 sequence 2: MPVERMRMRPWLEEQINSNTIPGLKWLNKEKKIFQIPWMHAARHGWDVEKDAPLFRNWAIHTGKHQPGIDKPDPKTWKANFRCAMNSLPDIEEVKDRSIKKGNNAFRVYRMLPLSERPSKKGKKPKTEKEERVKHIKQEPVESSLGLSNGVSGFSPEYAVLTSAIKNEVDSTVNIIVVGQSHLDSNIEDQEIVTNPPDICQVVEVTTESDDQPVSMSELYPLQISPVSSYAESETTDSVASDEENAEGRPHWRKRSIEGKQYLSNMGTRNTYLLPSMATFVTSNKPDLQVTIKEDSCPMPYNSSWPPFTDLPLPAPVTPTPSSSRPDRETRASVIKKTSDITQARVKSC
Put plainly: EMSA.

In data set [6] the target is IRF1;SPOP (mouse;mouse, UniProt P15314;Q6ZWS8 1-329;28-329, |). Kind of data set: EMSA.

The results in this text go back to paper doi:10.1101/2025.09.23.678148 (bioRxiv, 2025).

B1: recombinant mouse SPOP (aa28-329) (domain or fragment, UniProt Q6ZWS8 28-329, looked up)
chain: KVVKFSYMWTINNFSFCREEMGEVIKSSTFSSGANDKLKWCLRVNPKGLDEESKDYLSLYLLLVSCPKSEVRAKFKFSILNAKGEETKAMESQRAYRFVQGKDWGFKKFIRRDFLLDEANGLLPDDKLTLFCEVSVVQDSVNISGQNTMNMVKVPECRLADELGGLWENSRFTDCCLCVAGQEFQAHKAILAARSPVFSAMFEHEMEESKKNRVEINDVEPEVFKEMMCFIYTGKAPNLDKMADDLLAAADKYALERLKVMCEDALCSNLSVENAAEILILADLHSADQLKTQAVDFINYHA
B1: the binding result in data set [1] is given as “binds”.

B2: Gbp2 promoter probe, single IRF motif (dsDNA)
DNA 1: CAGTGAAAGTGAAACTAAAAAGCAC
DNA 2: GTGCTTTTTAGTTTCACTTTCACTG
Turning to B2, the binding result in data set [2] is listed as “binds”; in data set [3], “binds”; in data set [4], “no binding”; in data set [5], “binds”; in data set [6] it was “binds”.

B3: Gbp2 probe, GAAA core and 5'-flanking AA mutated (dsDNA)
DNA 1: CAGTGCCCGTGCCCCTACCCAGCAC
DNA 2: GTGCTGGGTAGGGGCACGGGCACTG
On to B3, for which the binding result in data set [2] and in data set [3] was “no binding” throughout.

B4: DNA with a single AAA core (dsDNA)
DNA 1: CAGTGAAAGTGCCCCTACCCAGCAC
DNA 2: GTGCTGGGTAGGGGCACTTTCACTG
Consider B4, for which, in data set [3], the binding result is listed as “no binding”.
